Results from article PMC10397247.
Read-outs that look alike come from different tables or passages of the source.

What was measured:
[1] = target: T1, 4H1930-AA; experiment: two-hybrid library CCmax; conditions: mean of both orientations;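 also: natural log of median RNA to DNA barcode read ratio; higher means stronger binding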
T1 chain: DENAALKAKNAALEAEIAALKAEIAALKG

[2] = target: T2, 4H249-AA; experiment: two-hybrid library CCmax; conditions: mean of both orientations;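 also: natural log of median RNA to DNA barcode read ratio; higher means stronger binding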
T2 chain: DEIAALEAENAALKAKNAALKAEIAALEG

[3] = target: GCN2_T; experiment: two-hybrid library CCmax; conditions: mean of both orientations;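 also: natural log of median RNA to DNA barcode read ratio; higher means stronger binding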
[4] = target: 4H_GCN4; experiment: two-hybrid library CCmax;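 also: natural log of median RNA to DNA barcode read ratio; higher means stronger binding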
[5] = target: T3, 4H2466-AA; experiment: two-hybrid library CCmax; conditions: mean of both orientations;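 also: natural log of median RNA to DNA barcode read ratio; higher means stronger binding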
T3 chain: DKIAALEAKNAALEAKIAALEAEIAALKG

[6] = target: T4, 4H1821-AA; experiment: two-hybrid library CCmax; conditions: mean of both orientations;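 also: natural log of median RNA to DNA barcode read ratio; higher means stronger binding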
T4 chain: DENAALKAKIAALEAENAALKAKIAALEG

[7] = target: T5, 4H3015-AA; experiment: two-hybrid library CCmax; conditions: mean of both orientations
T5 chain: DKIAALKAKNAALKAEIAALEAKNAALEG

[8] = target: T6, 4H3073-AA; experiment: two-hybrid library CCmax; conditions: mean of both orientations
T6 chain: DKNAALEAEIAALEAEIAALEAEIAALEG

[9] = target: T7, 4H2330-AA; experiment: two-hybrid library CCmax; conditions: mean of both orientations
T7 chain: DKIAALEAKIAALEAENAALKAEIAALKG

[10] = target: T8, 4H406-AA; experiment: two-hybrid library CCmax; conditions: mean of both orientations
T8 chain: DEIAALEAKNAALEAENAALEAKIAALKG

[11] = target: T9, Core_NNNN-es_KEEE; experiment: two-hybrid library CCmax
T9 chain: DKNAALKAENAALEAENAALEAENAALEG

[12] = target: T10, 4H2343-AA; experiment: two-hybrid library CCmax; conditions: mean of both orientations
T10 chain: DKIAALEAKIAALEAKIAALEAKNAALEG

[13] = target: T11, 4H2592-AA; experiment: two-hybrid library CCmax; conditions: mean of both orientations
T11 chain: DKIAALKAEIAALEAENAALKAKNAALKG

[14] = target: T12, 4H2124-AA; experiment: two-hybrid library CCmax
T12 chain: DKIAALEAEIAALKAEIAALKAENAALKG

[15] = target: T13, 4H2931-AA; experiment: two-hybrid library CCmax; conditions: mean of both orientations
T13 chain: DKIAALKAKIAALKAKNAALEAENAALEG

[16] = target: T14, 4H1828-AA; experiment: two-hybrid library CCmax; conditions: mean of both orientations
T14 chain: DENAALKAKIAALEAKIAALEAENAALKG

[17] = target: T15, 4H2732-AA; experiment: two-hybrid library CCmax; conditions: mean of both orientations
T15 chain: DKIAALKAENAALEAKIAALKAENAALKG

[18] = target: T16, 4H_APH; experiment: two-hybrid library CCmax
T16 chain: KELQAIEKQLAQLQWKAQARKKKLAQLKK

[19] = target: T17, 4H_BCR; experiment: two-hybrid library CCmax; conditions: mean of both orientations
T17 chain: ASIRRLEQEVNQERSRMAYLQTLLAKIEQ

[20] = target: T18, 4H452-AA; experiment: two-hybrid library CCmax; conditions: mean of both orientations
T18 chain: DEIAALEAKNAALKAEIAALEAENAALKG

[21] = target: T19, 4H2165-AA; experiment: two-hybrid library CCmax; conditions: mean of both orientations
T19 chain: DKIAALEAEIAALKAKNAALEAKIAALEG

[22] = target: T20, 4H1765-AA; experiment: two-hybrid library CCmax
T20 chain: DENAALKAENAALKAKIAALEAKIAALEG

[23] = target: T21, 4H2774-AA; experiment: two-hybrid library CCmax; conditions: mean of both orientations
T21 chain: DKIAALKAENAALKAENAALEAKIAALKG

[24] = target: T22, 4H2253-AA; experiment: two-hybrid library CCmax; conditions: mean of both orientations
T22 chain: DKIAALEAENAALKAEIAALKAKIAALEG

[25] = target: T23, 4H3001-AA; experiment: two-hybrid library CCmax; conditions: mean of both orientations
T23 chain: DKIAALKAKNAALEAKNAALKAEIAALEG

[26] = target: T24, 4H3438-AA; experiment: two-hybrid library CCmax; conditions: mean of both orientations
T24 chain: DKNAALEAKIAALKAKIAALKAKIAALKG

[27] = target: T25, 4H347-AA; experiment: two-hybrid library CCmax; conditions: mean of both orientations
T25 chain: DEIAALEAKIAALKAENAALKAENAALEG

[28] = target: T26, 4H56-AA; experiment: two-hybrid library CCmax; conditions: mean of both orientations
T26 chain: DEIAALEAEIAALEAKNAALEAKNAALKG

[29] = target: T27, O10-bP; experiment: two-hybrid library CCNG1
T27 chain: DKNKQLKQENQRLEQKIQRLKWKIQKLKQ

[30] = target: T28, O13-bP; experiment: two-hybrid library CCNG1
T28 chain: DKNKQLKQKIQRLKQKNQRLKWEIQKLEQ

[31] = target: T29, O1-bP; experiment: two-hybrid library CCNG1
T29 chain: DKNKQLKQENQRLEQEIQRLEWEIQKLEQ

[32] = target: T30, O3-bP; experiment: two-hybrid library CCNG1
T30 chain: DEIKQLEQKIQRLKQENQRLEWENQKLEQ

[33] = target: T31, O8-bP; experiment: two-hybrid library CCNG1
T31 chain: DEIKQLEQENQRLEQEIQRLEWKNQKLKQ

[34] = target: T32, O14-bP; experiment: two-hybrid library CCNG1
T32 chain: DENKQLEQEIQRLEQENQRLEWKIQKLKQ

[35] = target: T33, O9-bP; experiment: two-hybrid library CCNG1
T33 chain: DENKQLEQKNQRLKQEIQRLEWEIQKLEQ

[36] = target: T34, O11-bP; experiment: two-hybrid library CCNG1
T34 chain: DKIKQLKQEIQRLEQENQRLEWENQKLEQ

[37] = target: T35, O16-bP; experiment: two-hybrid library CCNG1
T35 chain: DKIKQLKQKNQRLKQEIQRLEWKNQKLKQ

[38] = target: T36, O5-bP; experiment: two-hybrid library CCNG1
T36 chain: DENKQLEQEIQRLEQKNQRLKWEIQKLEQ

[39] = target: T37, O7-bP; experiment: two-hybrid library CCNG1
T37 chain: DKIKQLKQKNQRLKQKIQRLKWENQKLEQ

[40] = target: T38, O6-bP; experiment: two-hybrid library CCNG1
T38 chain: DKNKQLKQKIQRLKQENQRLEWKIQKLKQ

[41] = target: T39, O12-bP; experiment: two-hybrid library CCNG1
T39 chain: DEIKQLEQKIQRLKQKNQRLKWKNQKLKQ

[42] = target: T40, O4-bP; experiment: two-hybrid library CCNG1
T40 chain: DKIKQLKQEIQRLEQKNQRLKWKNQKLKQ

[43] = target: T41, O15-bP; experiment: two-hybrid library CCNG1
T41 chain: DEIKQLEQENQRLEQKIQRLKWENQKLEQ

[44] = target: T42, O2-bP; experiment: two-hybrid library CCNG1
T42 chain: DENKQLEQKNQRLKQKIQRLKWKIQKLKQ

[45] = target: T43, P7SHb; experiment: two-hybrid library CCNG1
T43 chain: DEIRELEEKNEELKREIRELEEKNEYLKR

[46] = target: T44, P2SHb; experiment: two-hybrid library CCNG1
T44 chain: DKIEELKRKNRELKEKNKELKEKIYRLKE

[47] = target: T45, P4SHb; experiment: two-hybrid library CCNG1
T45 chain: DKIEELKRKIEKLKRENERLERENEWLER

[48] = target: T46, P3SHb; experiment: two-hybrid library CCNG1
T46 chain: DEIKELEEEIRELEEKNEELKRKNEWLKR

[49] = target: T47, P1SHb; experiment: two-hybrid library CCNG1
T47 chain: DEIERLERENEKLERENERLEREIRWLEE

[50] = target: T48, P11SHb; experiment: two-hybrid library CCNG1
T48 chain: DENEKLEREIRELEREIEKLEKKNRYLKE

[51] = target: T49, P6SHb; experiment: two-hybrid library CCNG1
T49 chain: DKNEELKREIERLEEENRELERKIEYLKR

[52] = target: T50, P12SHb; experiment: two-hybrid library CCNG1
T50 chain: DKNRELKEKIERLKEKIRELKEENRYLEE

[53] = target: T51, P8SHb; experiment: two-hybrid library CCNG1
T51 chain: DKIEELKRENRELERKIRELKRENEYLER

[54] = target: T52, P9SHb; experiment: two-hybrid library CCNG1
T52 chain: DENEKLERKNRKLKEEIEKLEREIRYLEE

[55] = target: T53, P3mSN; experiment: two-hybrid library CCNG1
T53 chain: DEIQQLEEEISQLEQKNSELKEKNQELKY

[56] = target: T54, P11mSN; experiment: two-hybrid library CCNG1
T54 chain: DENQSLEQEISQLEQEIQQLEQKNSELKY

[57] = target: T55, P2mSN; experiment: two-hybrid library CCNG1
T55 chain: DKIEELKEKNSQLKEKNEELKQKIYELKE

[58] = target: T56, P5mSN; experiment: two-hybrid library CCNG1
T56 chain: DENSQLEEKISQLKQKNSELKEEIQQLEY

[59] = target: T57, P12mSN; experiment: two-hybrid library CCNG1
T57 chain: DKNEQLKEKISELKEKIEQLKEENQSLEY

[60] = target: T58, P7mSN; experiment: two-hybrid library CCNG1
T58 chain: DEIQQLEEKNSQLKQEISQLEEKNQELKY

[61] = target: T59, P9mSN; experiment: two-hybrid library CCNG1
T59 chain: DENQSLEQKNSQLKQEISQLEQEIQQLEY

[62] = target: T60, P1mSN; experiment: two-hybrid library CCNG1
T60 chain: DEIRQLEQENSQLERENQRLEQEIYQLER

[63] = target: T61, P8mSN; experiment: two-hybrid library CCNG1
T61 chain: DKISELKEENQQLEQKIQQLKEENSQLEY

[64] = target: T62, P6mSN; experiment: two-hybrid library CCNG1
T62 chain: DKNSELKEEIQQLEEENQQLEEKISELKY

[65] = target: T63, P4mSN; experiment: two-hybrid library CCNG1
T63 chain: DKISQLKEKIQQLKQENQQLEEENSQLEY

Chain of 4H_GCN4 (chain, as listed by the source): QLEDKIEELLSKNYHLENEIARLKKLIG

Binder: DENAALKAENAALKAKIAALEAKIAALEG [4H1765-AA]
- interaction score [1]: -1.21
- interaction score [2]: -1.63
- interaction score [3]: -1.28
- interaction score [4]: -1.69
- interaction score [5]: -1.7
- interaction score [6]: -1.42
- interaction score [7]: -1.7
- interaction score [8]: -1.02
- interaction score [9]: -1.37
- interaction score [10]: -1.54
- interaction score [11]: -0.679
- interaction score [12]: -1.45
- interaction score [13]: -1.67
- interaction score [14]: -1.72
- interaction score [15]: -1.83
- interaction score [16]: -0.973
- interaction score [17]: -1.76
- interaction score [18]: -2.38
- interaction score [19]: -1.93
- interaction score [20]: -1.48
- interaction score [21]: -1.25
- interaction score [22]: 2.4
- interaction score [23]: -1.4
- interaction score [24]: -1.14
- interaction score [25]: -2.1
- interaction score [26]: -0.901
- interaction score [27]: -1.81
- interaction score [28]: -1.76

Binder: DENAALEAKNAALKAKNAALKAKNAALKG [Core_NNNN-es_EKKK]
- interaction score ([11]; mean of both orientations): 1.14

Binder: DKNKQLKQENQRLEQEIQRLEWEIQKLEQ [O1-bP]
- interaction score [29]: -0.164
- interaction score [30]: -0.754
- interaction score [31]: -0.355
- interaction score [32]: -1.35
- interaction score [33]: -1.95
- interaction score [34]: -1.51
- interaction score [35]: 1.31
- interaction score [36]: -0.513
- interaction score [37]: -0.714
- interaction score [38]: -1.22
- interaction score [39]: -1.06
- interaction score [40]: -0.442
- interaction score [41]: -1.11
- interaction score [42]: -1.05
- interaction score [43]: -1.88
- interaction score [44]: 1.06

Binder: DENEKLEREIRELEREIEKLEKKNRYLKE [P11SHb]
- interaction score [45]: 0.246
- interaction score [46]: 0.79
- interaction score [47]: 0.998
- interaction score [48]: -0.138
- interaction score [49]: -0.267
- interaction score [50]: 0.241
- interaction score [51]: 1.17
- interaction score [52]: 1.61
- interaction score [53]: -0.421
- interaction score [54]: 0.702

Binder: DENQSLEQEISQLEQEIQQLEQKNSELKY [P11mSN]
- interaction score [55]: -0.972
- interaction score [56]: 0.11
- interaction score [57]: -1.32
- interaction score [58]: -0.097
- interaction score [59]: 1.46
- interaction score [60]: -1.52
- interaction score [61]: -1.27
- interaction score [62]: -0.413
- interaction score [63]: 0.0166
- interaction score [64]: -0.793
- interaction score [65]: 0.374

Binder: DKNKQLKQENQRLEQKIQRLKWKIQKLKQ [O10-bP]
- interaction score ([29]; mean of both orientations): -0.552
- interaction score [30]: -0.892
- interaction score [32]: -0.676
- interaction score [33]: -1.81
- interaction score [34]: -0.56
- interaction score ([35]; mean of both orientations): 0.966
- interaction score [36]: -1.97
- interaction score [37]: -0.76
- interaction score [38]: -0.843
- interaction score [39]: -1.18
- interaction score [40]: -1.19
- interaction score [41]: -1.28
- interaction score [42]: -0.826
- interaction score [43]: -0.788
- interaction score [44]: 0.624
